{"source": "patent US20230293638A1", "about": "(Eli Lilly, published 2023)", "note": "Numbered stars: 1 amine (or outer) side, 2 acyl side, 3 side chain; on linkers, the order of the positions; unused ones are H or OH. Square brackets hold non-standard residues; d marks the D form. Side chains are listed from the residue outwards. Ends that are not written are not given here. * marks the point of attachment. C20 diacid = O=C(O)CCCCCCCCCCCCCCCCCCC(=O)*; γGlu = O=C(O)[C@H](CCC(=O)[*:2])N[*:1]; AEEA = NCCOCCOCC(=O)O; Aib = CC(C)(N)C(=O)O"}
{"target": "human GLP-1 receptor (human, UniProt P43220 24-463)", "assay": "cell-based or functional assay"}
{"binder": "YXEGTXTSDXSIXLDXKAQXTFIXXLIEGGPSSGAPPPS (not fully specified; Aib2; αMeF(2F)6; 4Pal10; αMeL13; Orn16; K17((2-[2-(2-Amino-ethoxy)-ethoxy]-acetyl)2-(γGlu)-CO-(CH2)16-CO2H); Aib20; D-Glu24; αMeY25; C-terminal NH2)", "note": "[Peptide 239]", "hGLPIR cAMP EC50 ratio": 0.987}
{"binder": "YXEGTXTSDYSIXLDXKAQXEFIXYLIEGGPSSGAPPPS (Aib2; αMeF(2F)6; αMeL13; Dap16; K17((2-[2-(2-Amino-ethoxy)-ethoxy]-acetyl)2-(γGlu)-CO-(CH2)18-CO2H); Aib20; D-Glu24; C-terminal NH2)", "note": "[Peptide 218]", "hGLPIR cAMP EC50 ratio": 1.02}
{"binder": "YXEGTXTSDYSIXLDXKAQXEFIXXLIEGGPSSGAPPPS (not fully specified; Aib2; αMeF(2F)6; αMeL13; Orn16; K17((2-[2-(2-Amino-ethoxy)-ethoxy]-acetyl)2-(γGlu)-CO-(CH2)16-CO2H); Aib20; D-Glu24; αMeY25; C-terminal NH2)", "note": "[Peptide 236]", "hGLPIR cAMP EC50 ratio": 1.65}
{"binder": "YXEGTXTSDYSIXLDEKAQXEFIXYLIEGGPSSGAPPPS (Aib2; αMeF6; αMeL13; K17((2-[2-(2-Amino-ethoxy)-ethoxy]-acetyl)2-(γGlu)-CO-(CH2)16-CO2H); Aib20; D-Glu24; C-terminal NH2)", "note": "[Peptide 213]", "hGLPIR cAMP EC50 ratio": 0.694}
{"binder": "YXEGTXTSDYSIXLDEKAQXEFIXYLIEGGPSSGAPPPS (Aib2; αMeF(2F)6; αMeL13; K17((2-[2-(2-Amino-ethoxy)-ethoxy]-acetyl)2-(εK)-CO-(CH2)18-CO2H); Aib20; D-Glu24; C-terminal NH2)", "note": "[Peptide 216]", "hGLPIR cAMP EC50 ratio": 1.31}
{"binder": "YXEGTXTSDYSIXLDKKAQXEFIXYLIEGGPSSGAPPPS (Aib2; αMeF(2F)6; αMeL13; K17((2-[2-(2-Amino-ethoxy)-ethoxy]-acetyl)2-(γGlu)-CO-(CH2)18-CO2H); Aib20; D-Glu24; C-terminal NH2)", "note": "[Peptide 212]", "hGLPIR cAMP EC50 ratio": 0.771}
{"binder": "YXEGTXTSDYSIXLDEKAQXEFIXYLIEGGPSSGAPPPS (Aib2; αMeF(2F)6; αMeL13; K17((2-[2-(2-Amino-ethoxy)-ethoxy]-acetyl)2-(γGlu)-CO-(CH2)16-CO2H); Aib20; D-Glu24; C-terminal NH2)", "note": "[Peptide 221]", "hGLPIR cAMP EC50 ratio": 0.795}
{"binder": "YXEGTXTSDYSIXLDKKAQXEFIXYLIEGGPSSGAPPPS (Aib2; αMeF(2F)6; αMeL13; K17((2-[2-(2-Amino-ethoxy)-ethoxy]-acetyl)-(γGlu)-(2-[2-(2-Amino-ethoxy)-ethoxy]-acetyl)-CO-(CH2)18-CO2H); Aib20; D-Glu24; C-terminal NH2)", "note": "[Peptide 211]", "hGLPIR cAMP EC50 ratio": 1.28}
{"binder": "YXEGTXTSDLSIXLDXKAQXEFIXXLIEGGPSSGAPPPS (not fully specified; Aib2; αMeF(2F)6; αMeL13; Orn16; K17((2-[2-(2-Amino-ethoxy)-ethoxy]-acetyl)2-(γGlu)-CO-(CH2)16-CO2H); Aib20; D-Glu24; αMeY25; C-terminal NH2)", "note": "[Peptide 238]", "hGLPIR cAMP EC50 ratio": 1.15}
{"binder": "YXEGTXTSDYSIXLDEKAQXEFIXYLIEGG (Aib2; αMeF(2F)6; αMeL13; K17((2-[2-(2-Amino-ethoxy)-ethoxy]-acetyl)2-(γGlu)-CO-(CH2)16-CO2H); Aib20; D-Glu24; C-terminal NH2)", "note": "[Peptide 220]", "hGLPIR cAMP EC50 ratio": 1.36}
{"binder": "Y[Aib]EGTFTSDYSK([AEEA-AEEA-γGlu-C20 diacid])LLDKIAQ[Aib]AFIEYLIEGGPSSGAPPPS-NH2 (N-terminus assumed; SMILES CC[C@H](C)[C@H](NC(=O)[C@H](CCCCN)NC(=O)[C@H](CC(=O)O)NC(=O)[C@H](CC(C)C)NC(=O)[C@H](CC(C)C)NC(=O)[C@H](CCCCNC(=O)COCCOCCNC(=O)COCCOCCNC(=O)CC[C@H](NC(=O)CCCCCCCCCCCCCCCCCCC(=O)O)C(=O)O)NC(=O)[C@H](CO)NC(=O)[C@H](Cc1ccc(O)cc1)NC(=O)[C@H](CC(=O)O)NC(=O)[C@H](CO)NC(=O)[C@@H](NC(=O)[C@H](Cc1ccccc1)NC(=O)[C@@H](NC(=O)CNC(=O)[C@H](CCC(=O)O)NC(=O)C(C)(C)NC(=O)[C@@H](N)Cc1ccc(O)cc1)[C@@H](C)O)[C@@H](C)O)C(=O)N[C@@H](C)C(=O)N[C@@H](CCC(N)=O)C(=O)NC(C)(C)C(=O)N[C@@H](C)C(=O)N[C@@H](Cc1ccccc1)C(=O)N[C@H](C(=O)N[C@@H](CCC(=O)O)C(=O)N[C@@H](Cc1ccc(O)cc1)C(=O)N[C@@H](CC(C)C)C(=O)N[C@H](C(=O)N[C@@H](CCC(=O)O)C(=O)NCC(=O)NCC(=O)N1CCC[C@H]1C(=O)N[C@@H](CO)C(=O)N[C@@H](CO)C(=O)NCC(=O)N[C@@H](C)C(=O)N1CCC[C@H]1C(=O)N1CCC[C@H]1C(=O)N1CCC[C@H]1C(=O)N[C@@H](CO)C(N)=O)[C@@H](C)CC)[C@@H](C)CC)", "note": "[Peptide 25]", "hGLPIR cAMP EC50 ratio": 0.197}
{"binder": "YXEGTXTSDYSIXLDEKAQXEFIXYLIEGGPSSG (Aib2; αMeF(2F)6; αMeL13; K17((2-[2-(2-Amino-ethoxy)-ethoxy]-acetyl)2-(γGlu)-CO-(CH2)16-CO2H); Aib20; D-Glu24; C-terminal NH2)", "note": "[Peptide 219]", "hGLPIR cAMP EC50 ratio": 1.03}
{"binder": "YXEGTXTSDYSIXLDKKAQXEFIXYLIEGGPSSG (Aib2; αMeF6; αMeL13; K17((2-[2-(2-Amino-ethoxy)-ethoxy]-acetyl)2-(γGlu)-CO-(CH2)18-CO2H); Aib20; D-Glu24; C-terminal NH2)", "note": "[Peptide 228]", "hGLPIR cAMP EC50 ratio": 1.1}
{"binder": "Y[Aib]EGTFTSDYSIK([AEEA-AEEA-γGlu-C20 diacid])LDKIAQ[Aib]AFIEYLIEGGPSSGAPPPS-NH2 (N-terminus assumed; SMILES CC[C@H](C)[C@H](NC(=O)[C@H](CCCCN)NC(=O)[C@H](CC(=O)O)NC(=O)[C@H](CC(C)C)NC(=O)[C@H](CCCCNC(=O)COCCOCCNC(=O)COCCOCCNC(=O)CC[C@H](NC(=O)CCCCCCCCCCCCCCCCCCC(=O)O)C(=O)O)NC(=O)[C@@H](NC(=O)[C@H](CO)NC(=O)[C@H](Cc1ccc(O)cc1)NC(=O)[C@H](CC(=O)O)NC(=O)[C@H](CO)NC(=O)[C@@H](NC(=O)[C@H](Cc1ccccc1)NC(=O)[C@@H](NC(=O)CNC(=O)[C@H](CCC(=O)O)NC(=O)C(C)(C)NC(=O)[C@@H](N)Cc1ccc(O)cc1)[C@@H](C)O)[C@@H](C)O)[C@@H](C)CC)C(=O)N[C@@H](C)C(=O)N[C@@H](CCC(N)=O)C(=O)NC(C)(C)C(=O)N[C@@H](C)C(=O)N[C@@H](Cc1ccccc1)C(=O)N[C@H](C(=O)N[C@@H](CCC(=O)O)C(=O)N[C@@H](Cc1ccc(O)cc1)C(=O)N[C@@H](CC(C)C)C(=O)N[C@H](C(=O)N[C@@H](CCC(=O)O)C(=O)NCC(=O)NCC(=O)N1CCC[C@H]1C(=O)N[C@@H](CO)C(=O)N[C@@H](CO)C(=O)NCC(=O)N[C@@H](C)C(=O)N1CCC[C@H]1C(=O)N1CCC[C@H]1C(=O)N1CCC[C@H]1C(=O)N[C@@H](CO)C(N)=O)[C@@H](C)CC)[C@@H](C)CC)", "note": "[Peptide 26]", "hGLPIR cAMP EC50 ratio": 0.238}
{"binder": "Y[Aib]EGTFTSDYSILLDK([AEEA-AEEA-γGlu-C20 diacid])IAQ[Aib]AFIEYLIEGGPSSGAPPPS-NH2 (N-terminus assumed; SMILES CC[C@H](C)[C@H](NC(=O)[C@H](CCCCNC(=O)COCCOCCNC(=O)COCCOCCNC(=O)CC[C@H](NC(=O)CCCCCCCCCCCCCCCCCCC(=O)O)C(=O)O)NC(=O)[C@H](CC(=O)O)NC(=O)[C@H](CC(C)C)NC(=O)[C@H](CC(C)C)NC(=O)[C@@H](NC(=O)[C@H](CO)NC(=O)[C@H](Cc1ccc(O)cc1)NC(=O)[C@H](CC(=O)O)NC(=O)[C@H](CO)NC(=O)[C@@H](NC(=O)[C@H](Cc1ccccc1)NC(=O)[C@@H](NC(=O)CNC(=O)[C@H](CCC(=O)O)NC(=O)C(C)(C)NC(=O)[C@@H](N)Cc1ccc(O)cc1)[C@@H](C)O)[C@@H](C)O)[C@@H](C)CC)C(=O)N[C@@H](C)C(=O)N[C@@H](CCC(N)=O)C(=O)NC(C)(C)C(=O)N[C@@H](C)C(=O)N[C@@H](Cc1ccccc1)C(=O)N[C@H](C(=O)N[C@@H](CCC(=O)O)C(=O)N[C@@H](Cc1ccc(O)cc1)C(=O)N[C@@H](CC(C)C)C(=O)N[C@H](C(=O)N[C@@H](CCC(=O)O)C(=O)NCC(=O)NCC(=O)N1CCC[C@H]1C(=O)N[C@@H](CO)C(=O)N[C@@H](CO)C(=O)NCC(=O)N[C@@H](C)C(=O)N1CCC[C@H]1C(=O)N1CCC[C@H]1C(=O)N1CCC[C@H]1C(=O)N[C@@H](CO)C(N)=O)[C@@H](C)CC)[C@@H](C)CC)", "note": "[Peptide 29]", "hGLPIR cAMP EC50 ratio": 0.0671}
